The results in this text go back to article doi:10.1101/2025.09.11.675134, “Biodistribution-Driven Discovery Identifies a Glycosidase-Cleavable Linker to Reprogram Radiotheranostics” (bioRxiv, 2025).

A short description of the series: Ex vivo biodistribution of 111In-labeled variants in AR42J xenograft mice. The arrangement: species or system athymic nude mice. Conditions: athymic nude, mouse, iv, 1 ug, total radioactivity, 1 h post-injection; for tissue uptake at 1 h: AR42J tumor-bearing mice; for tissue to tissue ratio at 1 h: AR42J xenografts, read-out: Tumor-to-kidney (T/K) ratio. The method, then: For studies involving three variants (DOTA -TATE, DOTA-MVK(ε)-TATE, and DOTA-β-Gal-TATE), AR42J cells (5 × 10^6 cells per mouse) were subcutaneously inoculated into the right shoulder of the mice. Tumors were allowed to grow for 3 weeks, reaching a volume of 100 –200 mm³ before being used in subsequent experiments. For biodistribution or PET imaging studies, mice bearing subcutaneous AR42J tumors were administered 1.4 – 1.8 MBq (1 μg) of 111In-labeled DOTA-TATE variants or 2.7 – 4.9 MBq (1 μg) of 86Y-labeled DOTA-TATE variants via tail vein injection. Biodistribution studies with 111In-labeled DOTA -TATE variants were performed 1 hour post -injection (n = 3 per cohort), while studies with 86Y-labeled DOTA-TATE variants were conducted at 1, 4, and 24 hours post -injection (n = 3 per cohort). Mice were euthanized by CO2 asphyxiation, and 10 tissues, including tumors, were collected. All samples were weighed and counted on a gamma counter (2480 Wizard 3, Perkin Elmer Inc., Waltham, MA, USA). Results are presented as percentage of injected activity per gram (%IA/g) and mean values ± standard deviations. […]

Where [1] appears, read: blood, i.v. 1 μg (1.4–1.8 MBq), ex vivo gamma counting, mean, n = 3, read-out: Blood uptake.
Setting [2] is: femur, i.v. 1 μg, ex vivo, mean, n = 3, read-out: Femur uptake.
Where [3] appears, read: heart, i.v. 1 μg, ex vivo, mean, n = 3, read-out: Heart uptake.
Setting [4] is: kidney, i.v. 1 μg, ex vivo, mean (± SD), n = 3, read-out: Kidney uptake.
Where [5] appears, read: liver, i.v. 1 μg, ex vivo, mean, n = 3, read-out: Liver uptake.
[6] abbreviates: lung, i.v. 1 μg, ex vivo, mean, n = 3, read-out: Lung uptake.
Where [7] appears, read: muscle, i.v. 1 μg, ex vivo, mean, n = 3, read-out: Muscle uptake.
Setting [8] is: spleen, i.v. 1 μg, ex vivo, mean, n = 3, read-out: Spleen uptake.
Where [9] appears, read: tumor (AR42J xenograft), i.v. 1 μg, ex vivo, mean (± SD), n = 3, read-out: Tumor uptake.

Read-outs that look alike come from different tables or passages of the source.

As to `CSCC[C@H](NC(=O)CN1CCN(CC(=O)O)CCN(CC(=O)O)CCN(CC(=O)O)CC1)C(=O)N[C@H](C(=O)N[C@@H](CCCCNC(=O)CCCC(=O)N[C@H](Cc1ccccc1)C(=O)N[C@H]1CSSC[C@@H](C(=O)N[C@H](C(=O)O)[C@@H](C)O)NC(=O)[C@H]([C@@H](C)O)NC(=O)[C@H](CCCCN)NC(=O)[C@@H](Cc2c[nH]c3ccccc23)NC(=O)[C@H](Cc2ccc(O)cc2)NC1=O)C(=O)O)C(C)C` [^111In-DOTA-MVK(ε)-TATE, metal not drawn], the tissue uptake at 1 h is, setting by setting: under setting [1], 0.73 %ID/g; under setting [2], 0.55 %ID/g; under setting [3], 0.29 %ID/g; (intestine, i.v. 1 μg, ex vivo, mean, n = 3, read-out: Intestine uptake) 0.81 %ID/g; under setting [4], 5.56 ± 0.29 %ID/g; under setting [5], 0.31 %ID/g. For the same compound, the tissue uptake at 1 h turned out to be 0.73 %ID/g under setting [6], 0.27 %ID/g under setting [7], 0.16 %ID/g under setting [8] and 5.44 ± 0.19 %ID/g under setting [9]. Moreover, the tissue to tissue ratio at 1 h (tumor and kidney, ex vivo) is 0.98.
As for `C[C@@H](O)[C@H](NC(=O)[C@@H]1CSSC[C@H](NC(=O)[C@@H](Cc2ccccc2)NC(=O)CN2CCN(CC(=O)O)CCN(CC(=O)O)CCN(CC(=O)O)CC2)C(=O)N[C@@H](Cc2ccc(O)cc2)C(=O)N[C@H](Cc2c[nH]c3ccccc23)C(=O)N[C@@H](CCCCN)C(=O)N[C@@H]([C@@H](C)O)C(=O)N1)C(=O)O` [^111In-DOTA-TATE, metal not drawn, reference compound], the tissue uptake at 1 h under setting [1] is 0.27 %ID/g; the tissue uptake at 1 h under setting [2] stood at 0.12 %ID/g; the tissue uptake at 1 h under setting [3] came to 0.1 %ID/g; the tissue uptake at 1 h under setting [4] came to 7.33 ± 0.04 %ID/g; the tissue uptake at 1 h under setting [5] was 0.23 %ID/g; the tissue uptake at 1 h under setting [6] was determined as 0.49 %ID/g. Besides, the tissue uptake at 1 h under setting [7] amounted to 0.06 %ID/g, the tissue uptake at 1 h under setting [8] worked out at 0.1 %ID/g and the tissue uptake at 1 h under setting [9] is 5.67 ± 0.92 %ID/g.
Regarding `C[C@@H](O)[C@H](NC(=O)[C@@H]1CSSC[C@H](NC(=O)[C@@H](Cc2ccccc2)NC(=O)CCCC(=O)Nc2cc(COC(=O)N(C)CCNC(=O)CN3CCN(CC(=O)O)CCN(CC(=O)O)CCN(CC(=O)O)CC3)ccc2O[C@@H]2O[C@H](CO)[C@H](O)[C@H](O)[C@H]2O)C(=O)N[C@@H](Cc2ccc(O)cc2)C(=O)N[C@H](Cc2c[nH]c3ccccc23)C(=O)N[C@@H](CCCCN)C(=O)N[C@@H]([C@@H](C)O)C(=O)N1)C(=O)O` [^111In-DOTA-β-Gal-TATE, metal not drawn], the tissue uptake at 1 h (in vivo, i.v. 1 μg (1.4–1.8 MBq), ex vivo gamma counting, mean, n = 3, read-out: Blood uptake) stood at 0.56 %ID/g; the tissue uptake at 1 h (in vivo, i.v. 1 μg, ex vivo, mean (± SD), n = 3, read-out: Kidney uptake) was determined as 5.19 ± 0.18 %ID/g; the tissue uptake at 1 h (in vivo, i.v. 1 μg, ex vivo, mean (± SD), n = 3, read-out: Tumor uptake) was 10.8 ± 1.11 %ID/g; the tissue uptake at 1 h (in vivo, i.v. 1 μg, ex vivo, mean, n = 3, read-out: Femur uptake) is 0.34 %ID/g; the tissue uptake at 1 h (in vivo, i.v. 1 μg, ex vivo, mean, n = 3, read-out: Heart uptake) amounted to 0.29 %ID/g; the tissue uptake at 1 h (in vivo, i.v. 1 μg, ex vivo, mean, n = 3, read-out: Intestine uptake) worked out at 0.79 %ID/g. Also, the tissue uptake at 1 h stood at 0.45 %ID/g (in vivo, i.v. 1 μg, ex vivo, mean, n = 3, read-out: Liver uptake); 0.92 %ID/g (in vivo, i.v. 1 μg, ex vivo, mean, n = 3, read-out: Lung uptake); 0.17 %ID/g (in vivo, i.v. 1 μg, ex vivo, mean, n = 3, read-out: Muscle uptake); 0.21 %ID/g (in vivo, i.v. 1 μg, ex vivo, mean, n = 3, read-out: Spleen uptake). The tissue to tissue ratio at 1 h (ex vivo) is 2.08.
